Results published in patent US20260069689A1.

Key:
[1] = target: T1, human CD20 on Jurkat cells (human) (UniProt P11836); test: cell-based or functional assay
T1 sequence: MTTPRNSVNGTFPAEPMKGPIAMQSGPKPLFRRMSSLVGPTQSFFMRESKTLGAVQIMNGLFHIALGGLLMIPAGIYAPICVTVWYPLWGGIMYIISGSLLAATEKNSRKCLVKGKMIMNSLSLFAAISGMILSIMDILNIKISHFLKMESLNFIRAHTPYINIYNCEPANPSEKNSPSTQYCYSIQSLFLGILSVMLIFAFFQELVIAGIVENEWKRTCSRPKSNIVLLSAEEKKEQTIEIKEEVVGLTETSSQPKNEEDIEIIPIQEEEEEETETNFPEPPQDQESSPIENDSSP

[2] = target: full-length SARS-CoV-2 spike protein (Wuhan-Hu-1) on Jurkat/hCD20 cells (SARS-CoV-2) (UniProt P0DTC2); test: cell-based or functional assay
hACE-2-10His (human) = hACE-2-10His (human) (UniProt Q9BYF1); test: ELISA, hACE-2-10His coated on the plate
[3] = target: human FcγR3a 176Val allotype receptor (human) (UniProt P08637); test: cell-based or functional assay

| Substance | Max ADCP (%), MDM donor #1, Jurkat/hCD20 cells [1] [%] | Max ADCP (%), MDM donor #2, Jurkat/hCD20 cells [1] [%] | Max cytotoxicity (%), ADCC, NK donor #1, Jurkat/hCD20 cells [1] [%] | Max cytotoxicity (%), ADCC, NK donor #2, Jurkat/hCD20 cells [1] [%] | Max cytotoxicity (%), ADCC, NK donor #3, Jurkat/hCD20 cells [1] [%] | Max ADCP (%), MDM donor #1, Jurkat/hCD20/SARS-CoV-2 S FL cells [2] [%] | Max ADCP (%), MDM donor #2, Jurkat/hCD20/SARS-CoV-2 S FL cells [2] [%] | Max cytotoxicity (%), ADCC, NK donor #1, Jurkat/hCD20/SARS-CoV-2 S FL cells [2] [%] | Max cytotoxicity (%), ADCC, NK donor #2, Jurkat/hCD20/SARS-CoV-2 S FL cells [2] [%] | Max cytotoxicity (%), ADCC, NK donor #3, Jurkat/hCD20/SARS-CoV-2 S FL cells [2] [%] | EC50 (M) of ADCC, NK donor #3, Jurkat/hCD20/SARS-CoV-2 S FL cells [2] [M] | EC50 (M) of ADCP, MDM donor #1, Jurkat/hCD20/SARS-CoV-2 S FL cells [2] [M] | EC50 (M) of ADCP, MDM donor #2, Jurkat/hCD20/SARS-CoV-2 S FL cells [2] [M] | EC50 (M), Jurkat/CD20/spike [3] [M] | EC50 [M] of ADCP, macrophages, Jurkat/hCD20/SARS-CoV-2 spike cells [2] [M] | Max % ADCP, macrophages, Jurkat/hCD20/SARS-CoV-2 spike cells [2] [%] | further results |
| --- | --- | --- | --- | --- | --- | --- | --- | --- | --- | --- | --- | --- | --- | --- | --- | --- | --- |
| IgG1 isotype control (antibody) | 16.9 | 14.6 | 0.7 | 6.4 | 0.5 | 13.1 | 9.6 | 1.8 | 0 | 0 | – | – | – | – | – | – | Max cytotoxicity (%), ADCC, pooled primary NK cells, Jurkat/hCD20 cells [1]: 0.6% |
| SARS-CoV-2 RBD.mmh | – | – | – | – | – | – | – | – | – | – | – | – | – | – | – | – | EC50 (hACE-2-10His (human)): 0.3 nM |
| casirivimab + imdevimab | – | – | – | – | – | 49.5 | 48.2 | 1.6 | 4.1 | 15.4 | 3.6e-11 | 1.2e-10 | 5.78e-11 | – | – | – | – |
| mAb10933 (antibody) | 14 | 11.5 | 4.7 | 3.6 | 1.2 | 28.3 | 28.6 | 1.4 | 5 | 11.1 | 4.89e-11 | 9.7e-12 | 2.23e-11 | 6.47e-10 | 3.88e-11 | 33.1 | Fold induction, Jurkat CD20 [3]: 1.1 fold; Fold induction, Jurkat/CD20/spike [3]: 2.9 fold |
| mAb10987 (antibody) | 14.8 | 10.7 | 3.9 | 1.9 | – | 32.3 | 30.4 | 8.1 | 10.5 | 26.6 | 6.44e-11 | 2.91e-11 | 1.98e-11 | 4.71e-10 | 3.19e-11 | 36.3 | EC50 (M) of ADCC, NK donor #1, Jurkat/hCD20/SARS-CoV-2 S FL cells [2]: 7.42e-10 M; EC50 (M) of ADCC, NK donor #2, Jurkat/hCD20/SARS-CoV-2 S FL cells [2]: 5.05e-09 M |
